According to patent publication US6280955:

Molecular target: IL-1RI (cell surface IL-1 receptor) (Homo sapiens (Human)) (UniProt P14778)

“epitope-tagged IL-1RAcP (amino-terminal FLAG fusion, full length, transiently expressed from pFlag-CMV-1) (receptor)” was tested. Which NF-κB-dependent luciferase reporter gene in 293 cells, ligand-independent did it give?
Its NF-κB-dependent luciferase reporter gene in 293 cells, ligand-independent is 20 fold.
